Laboratory results published in patent publication US20220177579A1 (published 2022).
Numbering of substitutions follows the chain as printed.

T1: human CD19 on CD19(+) NALM6 acute lymphoid leukemia cells (UniProt P15391 20-556)
T1 chain: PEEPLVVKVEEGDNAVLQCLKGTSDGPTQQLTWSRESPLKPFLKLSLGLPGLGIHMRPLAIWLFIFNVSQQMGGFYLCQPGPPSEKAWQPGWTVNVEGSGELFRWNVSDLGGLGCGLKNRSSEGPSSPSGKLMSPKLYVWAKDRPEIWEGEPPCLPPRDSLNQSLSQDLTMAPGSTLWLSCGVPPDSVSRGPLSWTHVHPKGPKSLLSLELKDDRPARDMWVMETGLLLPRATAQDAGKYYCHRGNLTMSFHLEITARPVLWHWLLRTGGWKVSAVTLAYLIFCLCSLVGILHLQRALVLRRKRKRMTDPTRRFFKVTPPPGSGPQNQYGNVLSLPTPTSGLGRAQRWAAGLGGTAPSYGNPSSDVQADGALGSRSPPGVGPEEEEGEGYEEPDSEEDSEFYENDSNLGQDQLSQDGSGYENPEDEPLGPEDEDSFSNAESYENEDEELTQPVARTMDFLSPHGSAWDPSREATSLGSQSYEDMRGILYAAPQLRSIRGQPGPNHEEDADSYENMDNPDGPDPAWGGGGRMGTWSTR

B1: L3+H8b (antibody, V domains shown)
VH: QVQLQESGPGLVKPSETLSVTCTVSGVSLPDYGVSWIRQPPGKGLEWIGVIWGSETTYYNPSLKSRLTISKDTSKNQFSLKLSSVTAADTAVYYCAKHYYYGGSYAMDYWGQGTSVTVSS
VL: DIQMTQSTSSLSASVGDRVTITCRASQDISKYLNWYQQKPGKAVKLLIYHTSRLHSGVPSRFSGSGSGTDYTFTISSLQPEDIATYYCQQGNTLPYTFGGGTKLEIT
B2: L3+H3 (antibody, V domains shown)
VH: B1 VH with V20L, Y58N, K71V, L82M
VL: B1 VL
B3: L3+H6b (antibody, V domains shown)
VH: B1 VH with V20L, I48L, L67V, K71V, T73N
VL: B1 VL
B4: L2+H3 (antibody, V domains shown)
VH: B1 VH with V20L, Y58N, K71V, L82M
VL: B1 VL with T8P, R24Q, F73L, Y87F
B5: L3+H5b (antibody, V domains shown)
VH: B1 VH with V20L, Y58N, L67V, N76S, F78V
VL: B1 VL

Molecular target: T1, human CD19 on CD19(+) NALM6 acute …
Experiment: FACS

EC50	Binder
0.19 µg/mL	B1
0.64 µg/mL	B2
0.13 µg/mL	B3
0.41 µg/mL	B4
0.28 µg/mL	B5
